doi:10.1101/2024.11.03.621705 (bioRxiv, 2024)

Molecular target: the molecule itself
Assay: cryo-EM structure

B1: mouse TRPC5 with a 210-amino-acid C-terminal truncation, with N-terminal 3xFlag tag and MBP (recombinant plasmid FMC5) (domain or fragment, UniProt Q9QX29 1-765, looked up)
chain: MAQLYYKKVNYSPYRDRIPLQIVRAETELSAEEKAFLSAVEKGDYATVKQALQEAEIYYNVNINCMDPLGRSALLIAIENENLEIMELLLNHSVYVGDALLYAIRKEVVGAVELLLSYRKPSGEKQVPTLMMDTQFSEFTPDITPIMLAAHTNNYEIIKLLVQKRVTIPRPHQIRCNCVECVSSSEVDSLRHSRSRLNIYKALASPSLIALSSEDPILTAFRLGWELKELSKVENEFKAEYEELSQQCKLFAKDLLDQARSSRELEIILNHRDDHSEELDPQKYHDLAKLKVAIKYHQKEFVAQPNCQQLLATLWYDGFPGWRRKHWVVKLLTCMTIGFLFPMLSIAYLISPRSNLGLFIKKPFIKFICHTASYLTFLFMLLLASQHIVRTDLHVQGPPPTVVEWMILPWVLGFIWGEIKEMWDGGFTEYIHDWWNLMDFAMNSLYLATISLKIVAYVKYNGSRPREEWEMWHPTLIAEALFAISNILSSLRLISLFTANSHLGPLQISLGRMLLDILKFLFIYCLVLLAFANGLNQLYFYYETRAIDEPNNCKGIRCEKQNNAFSTLFETLQSLFWSVFGLLNLYVTNVKARHEFTEFVGATMFGTYNVISLVVLLNMLIAMMNNSYQLIADHADIEWKFARTKLWMSYFDEGGTLPPPFNIIPSPKSFLYLGNWFNNTFCPKRDPDGRRRRHNLRSFTERHADSLIQNQHYQEVIRNLVKRYVAAMIRNSKTNEGLTEENFKELKQDISSFRYEVLDLLGNRK
Q: Does B1 bind?
A: binds
